Where a chain is given by its changes, count along the chain named. Numbers in names are those of the source. Where two headings read alike, the source gives them in different places. Blank lines part the entries; values can stand above or below the binder they belong to. Primed or numbered codes have the meaning given here. * marks the point of attachment. Biotin = O=C1N[C@H]2[C@H](CS[C@H]2CCCCC(=O)*)N1; PEG4′ = not defined here
Assays:
[1] = molecular target: PFF used as inducer in the immunodepletion assay of Example 10 (human, UniProt P37840 1-140); assay: cell-based or functional assay
[2] = molecular target: T1, α-synuclein inducing species in brain lysates of MSA patients (12-18, 01-03, 04-51) (human, UniProt P37840 1-140); assay: cell-based or functional assay
[3] = molecular target: T1, α-synuclein inducing species in brain …; assay: cell-based or functional assay; remark: listed apart in the source
[4] = molecular target: T1, α-synuclein inducing species in brain …; assay: cell-based or functional assay; remark: listed apart in the source
[5] = molecular target: T2, full-length human recombinant wild-type β-synuclein monomer (human, UniProt Q16143 1-134); assay: competition ELISA: antibody pre-incubated with titrated synuclein species in solution; unbound antibody captured on WT PFF-coated plate (CPS)
T2 construct: mature; also called human βSyn monomer
T2 sequence (Q16143 whole entry): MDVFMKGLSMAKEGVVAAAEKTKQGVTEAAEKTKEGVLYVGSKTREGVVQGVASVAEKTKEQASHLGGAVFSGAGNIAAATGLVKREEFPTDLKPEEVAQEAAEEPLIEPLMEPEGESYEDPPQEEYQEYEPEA

[6] = molecular target: T3, full-length human recombinant wild-type γ-synuclein monomer (human, UniProt O76070 1-127); assay: as above
T3 construct: mature; also called human γSyn monomer

[7] = molecular target: T1, α-synuclein inducing species in brain …; assay: cell-based or functional assay; remark: listed apart in the source
[8] = molecular target: T3, full-length human recombinant wild-type …; assay: competition ELISA: antibody pre-incubated with titrated synuclein species in solution; unbound antibody captured on WT PFF-coated plate (CPS); remark: listed apart in the source
[9] = molecular target: T2, full-length human recombinant wild-type …; assay: as above; remark: listed apart in the source
[10] = molecular target: T3, full-length human recombinant wild-type …; assay: as above; remark: listed apart in the source
116-126 = molecular target: T4, 116-126; assay: 1-sided ELISA on plate-bound biotinylated peptide, luminescence (CPS)
T4 construct: also called alphaSyn 116-126
T4 peptide: {Biotin-PEG4′}-MPVDPDNEAYE-NH2

125-135 = molecular target: T5, 125-135; assay: as above
T5 peptide: {Biotin-PEG4′}-YEMPSEEGYQD-NH2

128-138 = molecular target: T6, 128-138; assay: as above
T6 peptide: {Biotin-PEG4′}-PSEEGYQDYEP-NH2

129-139 = molecular target: T7, 129-139; assay: as above
T7 peptide: {Biotin-PEG4′}-SEEGYQDYEPE-NH2

130-140 = molecular target: T8, 130-140; assay: as above
T8 construct: also called alphaSyn 130-140
T8 peptide: {Biotin-PEG4′}-EEGYQDYEPEA-NH2

117-127 = molecular target: T9, 117-127; assay: as above
T9 construct: also called alphaSyn 117-127
T9 peptide: {Biotin-PEG4′}-PVDPDNEAYEM-NH2

118-128 = molecular target: T10, 118-128; assay: as above
T10 construct: also called alphaSyn 118-128
T10 peptide: {Biotin-PEG4′}-VDPDNEAYEMP-NH2

119-129 = molecular target: T11, 119-129; assay: as above
T11 peptide: {Biotin-PEG4′}-DPDNEAYEMPS-NH2

120-130 = molecular target: T12, 120-130; assay: as above
T12 construct: also called alphaSyn 120-130
T12 peptide: {Biotin-PEG4′}-PDNEAYEMPSE-NH2

121-131 = molecular target: T13, 121-131; assay: as above
T13 construct: also called alphaSyn 121-131
T13 peptide: {Biotin-PEG4′}-DNEAYEMPSEE-NH2

122-132 = molecular target: T14, 122-132; assay: as above
T14 construct: also called alphaSyn 122-132
T14 peptide: {Biotin-PEG4′}-NEAYEMPSEEG-NH2

123-133 = molecular target: T15, 123-133; assay: as above
T15 peptide: {Biotin-PEG4′}-EAYEMPSEEGY-NH2

124-134 = molecular target: T16, 124-134; assay: as above
T16 construct: also called alphaSyn 124-134
T16 peptide: {Biotin-PEG4′}-AYEMPSEEGYQ-NH2

rat αSyn 111-140 peptide = rat αSyn 111-140 peptide (rat, C-terminal amide (NH2)); assay: solution competition ELISA, free antibody captured on PFF plate; column Rat 111-140 (nM)
[11] = molecular target: mouse αSyn 111-140 peptide (mouse, C-terminal amide (NH2)); assay: solution competition ELISA, free antibody captured on PFF plate; column Mouse 111-140 (nM)
[12] = molecular target: T2, full-length human recombinant wild-type …; assay: competition ELISA: antibody pre-incubated with titrated synuclein species in solution; unbound antibody captured on WT PFF-coated plate (CPS); remark: listed apart in the source
[13] = molecular target: T3, full-length human recombinant wild-type …; assay: as above; remark: listed apart in the source

B1: 15A5 (antibody, V domains shown)
VH: QVQLQESGPGLVKPSETLSLTCTVSGGSVSSGSYYWCWIRQPPGKGLEWIGYIYYSGRTKYNPSLKSRVTISVDTSKNQFSLKLSSVTAADTAVYYCARERGRFDYWGQGTLVTVSS
VL: not shown
IC50 (nM), immunodepletion of pS129-inducing activity from PFF [1]: 0.042 nM | IC50 (nM), immunodepletion of pS129-inducing activity from MSA 12-18 lysate [2]: 0.61 nM | IC50 (nM), immunodepletion of pS129-inducing activity from MSA 01-03 lysate [3]: 0.59 nM | IC50 (nM), immunodepletion of pS129-inducing activity from MSA 04-51 lysate [4]: 0.12 nM | binding result [5]: binds | binding result [6]: binds

B2: 7A10-hIgG1.3f (antibody, V domains shown)
VH: B1 VH with S33R, C37S, A98T, R103Y, F104L
VL: not shown
IC50 (nM), immunodepletion of pS129-inducing activity from MSA 12-18 lysate [7]: 0.52 nM

B3: 7A10-Vh-K58Y-T93A-hHC-IgG1.3f (antibody, name in Kabat numbering, V domains shown)
VH: B1 VH with S33R, C37S, K60Y, R103Y, F104L
VL: not shown
IC50 (nM), immunodepletion of pS129-inducing activity from MSA 12-18 lysate [7]: 4.65 nM

B4: 7A10-Vh-T93A-hHC-IgG1.3f (antibody, V domains shown)
VH: B1 VH with S33R, C37S, R103Y, F104L
VL: not shown
IC50 (nM), immunodepletion of pS129-inducing activity from MSA 12-18 lysate [7]: 0.66 nM

B6: 7A10 (antibody, V domains shown)
VH: B1 VH with S33R, C37S, A98T, R103Y, F104L
VL: not shown
IC50 (nM), immunodepletion of pS129-inducing activity from PFF [1]: 0.018 nM | IC50 (nM), immunodepletion of pS129-inducing activity from MSA 12-18 lysate [2]: 0.39 nM | IC50 (nM), immunodepletion of pS129-inducing activity from MSA 01-03 lysate [3]: 0.28 nM | IC50 (nM), immunodepletion of pS129-inducing activity from MSA 04-51 lysate [4]: 0.04 nM | binding result [8]: binds

B7: 7A10-Vh-R56S-K58N-T93A-IgG1.3f (antibody, name in Kabat numbering, V domains shown)
VH: B1 VH with S33R, C37S, R58S, K60N, R103Y, F104L
VL: not shown
IC50 (nM), immunodepletion of pS129-inducing activity from MSA 12-18 lysate [7]: 51 nM

B10: 7A10-Vh-R56S-T93A-hHC-IgG1.3f (antibody, name in Kabat numbering, V domains shown)
VH: B1 VH with S33R, C37S, R58S, R103Y, F104L
VL: not shown
IC50 (nM), immunodepletion of pS129-inducing activity from MSA 12-18 lysate [7]: 9 nM

B13: 11H11-1 (antibody, V domains shown)
VH: EVQLVQSGGGLVHPGGSLRLSCAGSGFTFSSYAMHWVRQAPGKGLEWVSAIGTGGGTYYADSVKGRFTISRDNAKNSLYLQMNSLRAEDMAVYYCARGNWEFDYWGQGTLVTVSS
VL: not shown
notes: shares its VH with 11H11-2
IC50 (nM), immunodepletion of pS129-inducing activity from PFF [1]: 0.066 nM | IC50 (nM), immunodepletion of pS129-inducing activity from MSA 12-18 lysate [2]: 0.76 nM | IC50 (nM), immunodepletion of pS129-inducing activity from MSA 01-03 lysate [3]: 2.6 nM | IC50 (nM), immunodepletion of pS129-inducing activity from MSA 04-51 lysate [4]: 0.15 nM | EC50 (rat αSyn 111-140 peptide): 5.71 µM | EC50 [11]: 5.75 µM | binding result [12]: binds | binding result [13]: binds

The next lines start with the values.

IC50 (nM), immunodepletion of pS129-inducing activity from MSA 12-18 lysate [7]: 0.11 nM
B5: 21A3-Vh-V82L-hHC-IgG1.3f (antibody, V domains shown)
VH: B1 VH with S31N, G32R, S33N, C37S
VL: not shown

IC50 (nM), immunodepletion of pS129-inducing activity from PFF [1]: 0.061 nM | IC50 (nM), immunodepletion of pS129-inducing activity from MSA 12-18 lysate [2]: 0.16 nM | IC50 (nM), immunodepletion of pS129-inducing activity from MSA 01-03 lysate [3]: 0.37 nM | IC50 (nM), immunodepletion of pS129-inducing activity from MSA 04-51 lysate [4]: 0.05 nM | binding result [9]: binds | binding result [10]: binds
B8: 21A3 (antibody, V domains shown)
VH: B1 VH with S31N, G32R, S33N, C37S, L84V
VL: not shown
notes: also called 21A03

IC50 (nM), immunodepletion of pS129-inducing activity from MSA 12-18 lysate [7]: 0.19 nM
B9: 21A3-hIgG1.3f (antibody, V domains shown)
VH: B1 VH with S31N, G32R, S33N, C37S, L84V
VL: not shown

IC50 (nM), immunodepletion of pS129-inducing activity from PFF [1]: 0.057 nM | IC50 (nM), immunodepletion of pS129-inducing activity from MSA 12-18 lysate [2]: 0.63 nM | IC50 (nM), immunodepletion of pS129-inducing activity from MSA 01-03 lysate [3]: 0.55 nM | IC50 (nM), immunodepletion of pS129-inducing activity from MSA 04-51 lysate [4]: 0.17 nM
B11: 36A3 (antibody, V domains shown)
VH: B1 VH with C37S, K77R, R103W, F104L, Y106P
VL: not shown

Fold Antibody 1, immunodepletion of PFF [1]: 1.1 fold | IC50 (nM), immunodepletion of pS129-inducing activity from PFF [1]: 0.028 nM | Fold Antibody 1, immunodepletion of MSA 12-18 lysate [2]: 2.5 fold | IC50 (nM), immunodepletion of pS129-inducing activity from MSA 12-18 lysate [2]: 2.21 nM | Fold Antibody 1, immunodepletion of MSA 01-03 lysate [3]: 0.9 fold | IC50 (nM), immunodepletion of pS129-inducing activity from MSA 01-03 lysate [3]: 2.7 nM | Fold Antibody 1, immunodepletion of MSA 04-51 lysate [4]: 1.1 fold | IC50 (nM), immunodepletion of pS129-inducing activity from MSA 04-51 lysate [4]: 0.41 nM | binding result (116-126): no binding | binding result (125-135): no binding | binding result (128-138): no binding | binding result (129-139): binds | binding result (130-140): binds | binding result (117-127): no binding | binding result (118-128): no binding | binding result (119-129): no binding | binding result (120-130): no binding | binding result (121-131): no binding | binding result (122-132): no binding | binding result (123-133): no binding | binding result (124-134): no binding
B12: 44B11 (antibody, V domains shown)
VH: EVQLVESGGGLIQPGGSLRLSCAASGFTVSSKYMSWVRQAPGKGLEWVSVMYSGGRRYYADSVKGRFTISRDNSKNTLYLQMNSLRAEDTAVYYCARGDRGDYWGQGTLVTVSS
VL: EIVLTQSPATLSLSPGERATLSCRASQSVSSYLAWYQQKPGQAPRLLIYDASNRATGIPARFSGSGSGTDFTLTISSLEPEDFAVYYCQQRSNWPITFGQGTRLEIK

From patent US20210221878A1 (Bristol-Myers Squibb, published 2021)
